Test system: MBP5-TEV-paramyosin ΔSal (maltose binding protein domain and a paramyosin fragment linked by a TEV protease recognition sequence)

commercially available TEV protease (New England Biolabs, Inc. Catalog #P8112S)
cleavage of the substrate, 4° C., 1 hour: the commercially available enzyme only produced 62% cleavage in the same time | cleavage of the substrate, 4° C., 3 hours: the commercial enzyme cleaved only 76% and 83% of the substrate at these times, respectively | cleavage of the substrate, 4° C., 5 hours: the commercial enzyme cleaved only 76% and 83% of the substrate at these times, respectively

Reference: patent US20260234592
